Measurements as given in article PMC9396614.

Biological target: Arctic mutant (E22G) amyloid-β 1-42 peptide (human)

## recombinant human Bri2 BRICHOS domain, monomer (domain or fragment)
  reduction of the nucleation units generated during Aβ42^arc fibrillization, calculated from the fitted ThT kinetics, with monomeric rh Bri2 BRICHOS up to an equal ratio: 80%
